# Laboratory results: paper PMC5068707 (PLoS Pathogens, 2016)
# Where no end group is shown, it is not given here.
# T1: EBOV NP C-terminal portion (360–739) (Ebola virus (EBOV), UniProt P18272 360-739)
# T1 sequence: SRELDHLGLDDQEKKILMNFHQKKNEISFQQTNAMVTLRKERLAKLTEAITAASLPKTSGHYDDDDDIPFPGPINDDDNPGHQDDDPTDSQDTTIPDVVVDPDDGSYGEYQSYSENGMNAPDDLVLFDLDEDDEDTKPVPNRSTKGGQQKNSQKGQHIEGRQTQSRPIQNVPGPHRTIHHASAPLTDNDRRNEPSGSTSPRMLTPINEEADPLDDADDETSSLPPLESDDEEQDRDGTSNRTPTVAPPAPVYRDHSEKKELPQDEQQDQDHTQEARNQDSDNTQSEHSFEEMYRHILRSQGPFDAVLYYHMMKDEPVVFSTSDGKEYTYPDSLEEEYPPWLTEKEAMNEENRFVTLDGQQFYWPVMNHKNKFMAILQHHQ
# T2: MARV VP30 CTD (146–281) (Marburg virus (MARV), UniProt P35258 146-281)
# T2 sequence: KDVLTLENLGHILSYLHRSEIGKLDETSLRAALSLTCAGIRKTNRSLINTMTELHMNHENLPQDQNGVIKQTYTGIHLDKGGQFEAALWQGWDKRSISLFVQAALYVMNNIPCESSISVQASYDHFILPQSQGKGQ
# B1: Ebola virus VP30 C-terminal domain (amino acids 139–288) (domain or fragment)
# chain: GPKITLLTLIKTAEHWARQDIRTIEDSKLRALLTLCAVMTRKFSKSQLSLLCETHLRREGLGQDQAEPVLEVYQRLHSDKGGSFEAALWQQWDRQSLIMFITAFLNIALQLPCESSAVVVSGLRTLVPQSDNEEASTNPGTCSWSDEGTP
# What was measured:
# [1] = target: MARV NP 552-579-VP30 146–281 fusion protein (Marburg virus (MARV)) (UniProt P27588); assay: crystal structure
# [2] = target: T1, EBOV NP C-terminal portion (360–739); assay: ITC; settings: both partners purified
# [3] = target: T2, MARV VP30 CTD (146–281); assay: ITC; settings: both partners purified
# [4] = target: B1; assay: BLI; settings: both partners purified
# [5] = target: B1; assay: crystal structure; settings: both partners purified
molecule,measurement,setting,value
MARV NP 552-579-VP30 146–281 fusion protein (from UniProt P27588;P35258),stoichiometry N,[1],2
B1,Kd,[2],21.3 µM
EQGVDLPPPPLYAQEKRQ [MARV NP peptide (552–569) fused to T4 lysozyme],Kd,[3],14 µM
SSLPPLESDDEEQDRDGTSNRTPTVAPPAPVYRDHSEK (not fully specified (N-terminus); also: biotinylated (position not given here)) [biotinylated EBOV NP peptide 580–617],binding result,[4],binds
biotinylated EBOV NP peptide 560–617 (not fully specified (N-terminus); also: biotinylated (position not given here)) RMLTPINEEADPLDDADDETSSLPPLESDDEEQDRDGTSNRTPTVAPPAPVYRDHSEK,binding result,[4],binds
"RTPTVAPPAPVYRDHSEKKELPQDEQQD [EBOV NP peptide (600–627), as the N-terminal part of the NP-VP30 fusion]",binding result,[5],binds
